Source: publication PMC5974087, “The RPAP3-Cterminal domain identifies R2TP-like quaternary chaperones” (Nature Communications, 2018)

B1: GFP-RPAP3-Cter [human] / SHQ1 [human (endogenous in HeLa)] (parent)
chain 1: AQFATTVLPPIPANSFQLESDFRQLKSSPDMLYQYLKQIEPSLYPKLFQKNLDPDVFNQIVKILHDFYIEKEKPLLIFEILQRLSELKRFDMAVMFMSETEKKIARALFNHIDKSGLKDSSVEELKKRYGG
chain 2: MLTPAFDLSQDPDFLTIAIRVPYARVSEFDVYFEGSDFKFYAKPYFLRLTLPGRIVENGSEQGSYDADKGIFTIRLPKETPGQHFEGLNMLTALLAPRKSRTAKPLVEEIGASEIPEEVVDDEEFDWEIEQTPCEEVSESALNPQCHYGFGNLRSGVLQRLQDELSDVIDIKDPDFTPAAERRQKRLAAELAKFDPDHYLADFFEDEAIEQILKYNPWWTDKYSKMMAFLEKSQEQENHATLVSFSEEEKYQLRKFVNKSYLLDKRACRQVCYSLIDILLAYCYETRVTEGEKNVESAWNIRKLSPTLCWFETWTNVHDIMVSFGRRVLCYPLYRHFKLVMKAYRDTIKILQLGKSAVLKCLLDIHKIFQENDPAYILNDLYISDYCVWIQKVKSKKLAALAEALKEVSLTKAQLGLELEELEAAALLVQEEETALKAAHSVSGQQTLCSSSEASDSEDSDSSVSSGNEDSGSDSEQDELKDSPSETVSSLQGPFLEESSAFLIVDGGVRRNTAIQESDASQGKPLASSWPLGVSGPLIEELGEQLKTTVQVSEPKGTTAVNRSNIQERDGCQTPNN

Variants of: B1
Assay: SILAC quantitative proteomics of GFP IP
Details: with SHQ1 [human (endogenous in HeLa)]; read off a plot

enrichment (Log2 SILAC ratio)	Variant
1.5	chain 1 R89A M92A
